PMC11094138 (2024)

Molecular target: WDR5^22–334 (human, UniProt P61964 22-334)
Experiment: ITC

Binder | Kd [nM]
GSRRAEVHLRK [MLL1^3762–3772_A3764R] | 2000
GSARAEVHLRK [MLL1 WIN motif MLL1^3762–3772] | 1800
